This series is described as follows: label from the status in PepcDB records.
With “MSPLILMITAGAGIALLLFLVLKYKFQPFVALMLVSILVALVAGVKPAELVATIEGGMGKTLGHIAIIIALGAMIGRIIELSGGAEALAKTLIERFGNRRTPLALTMAGFIIGVPVFFEVGVIILMPLAYGVARSARKPLLVFALPMCAALLTVHAFLPPHPGAVAAASQLGADLGRVLMFGLPLTALLCYVGYRVAGRMTRRNYPMTDDIRAEVYGPHVTNEDLAAWNNGSEQPASPQAVAAVAHMGLEESTGSLAAKLPPAPPPGFGLIVSLILLPIVLILLGTLATSLLPLESTLRGVLTVLGAPLVALLLDTLLCAWLLGSRRGWSRSQVSDVIGSALPGVAMVILIAGAGGVFGKVLVDTGIGAVVSDLLRTTGLPVLALGFLLTMLLRAVQGSTTVALVTTAGIIAPLIATLNLSPNHMALLCLAMGGGGLAMSHINDAGYWIFTKLAGLNVADGLRTWTVITTLLGTLGFCITLLIWPFV”, the protein production result was “failed”. Turning to “MSPMRIGLVCIRGSVPAFENFGFLPTDIVGSNGLVNGSRAHRVLDGIIIPGGSIVESGSLSPELAFEIRRMASDGKFVLGICSGFQALAERTDIGRKSPCPVYREGLGLLNVTFHPMISNDRVEATITGESFLTSGMSGERITGFHCHTYGEIRGDAPEIMKSRIVRADYHERPGEILSGVCSDDGNVAGTMVHGCLDENQTLVSNILKFLDADETARERILEANRKLREALRSELGISTGIRVMDRGGTRGTPPAIMIASTGSDSGKTFILTGLAGALRRRGLRVGVIKVGPDVRDIVPALYLIKEPMEEHSSIRIGRLGWMELRDVLESVRGRYDIILIEGVMSILTGLLNDITPYSGAEIALAAGIPLIMVAGCSKGGIESAVVDLDAHISVLEGLGLEVSCGILNRVYDMDIFERASGGRYLAIPRVEMSERGGTPEVEIKLEDFCLKAMETVEEHLDVDTLISFAKKPEFRGYMGPEEIKKVFSPLEHHHHHH”, the protein production entry is listed as “failed”. The result for “MSPQSMLTSPQHPRRTTMVISHGTLSASAEHAAHLRQLLVHIAQATRQEDGCLLYLVSEDLSQPGHFLITEHWDNLGAMHTHLALPGVTQAIDALKHLNVTDLKITAYEAGEAINIMG” reads “not failed”; that for “MSPRDVLDSIFAFPPNRDTLGGTSYLIVGNEGNILIDCPALDQTNLNFLRSHGGVRWLFLTHRGAIGRTAEIQQNYGCDILIQEQEAYLLPGLTVTTFTQEFAVTPTAKAIWTPGHSPGSSCLYYNHQGGVLFSGRHLLPNQKGEPVPLRTAKTFHWPRQIKSLQTILETLTPETLQYICPGANTGFLRGKRSIDTAYQRLASLDLKALLQTQPLILEHHHHHH”, “not failed”.

For “MSPTRAQRLEGLERIAYCSDVKLFFLVSGSRMFLLLLMLFLRVALPHIYGTELLWDSGTLLYDDMNSTWSLLNFPRSWDGVHFFHVAKHGYSHENVCAFFPLVPFIVRTVSWLNDVLLPEFLTAVPVTFQVALLNVAMGGAAAVCLRRITILTLLSGSHGVDYTNKKDKAMSMTSGTWLDSLPLPPPYYRHEVTVKEHLNARLWKEVGATVLMWMLSPTAVFSVVLYTESVFSFATFLGVYMLIVSPQGKWRTAAAEAGAVLCFAVAGCARSNATTYIGFVLYPVFLQVFFFDTYRKRYAKRYGVTSPIRRWPSLARCVIVLIEVVIIITPYLGLNYLCYSRFVPLWDDMSRAAIGGRFWAFYGWMQKRYWNVGFLQSYRWGNAPNVLISAPIMFFTVRGFVLFIVQPALARSMETESNISKEYQEPRSDCREDRCGNKKQRLFSIYKLMENLVQSSNIICLLVILAFGATMAHVNVVNRLVMSSPALYWLWGRQFVCDPWGGNTVVMVRIFLLWNCIGALFVPNGLPWT”, the protein production entry is given as “failed”. The entry for “MSQALPYRPDIDTLRAAAVLSVIVFHIEKDWLPGGFLGVDIFFVISGFLMTTILHREMSGGGGRFSLKAFYIRRIKRILPAFFAVLAATLAGGFFLFTKDDFFLLWKSALTALGFASNLYFARGKDYFDPAQEEKPLLHIWSLSVEEQFYFVFPILLLLVARKSLRVQFGFLAALCALSLAASFIPSALDKYYLPHLRACELLIGSLTAVWMRCRQPAVGRRCAAVGALFAVCILSTCLFSYSEQTAYFPGPAALIPCLAVAALIYFNHYEHPLKKFFQSKITVAAGLISYSLYLWHWPILAFMRYIGPDNLPPYSPAAAVVLILLLSLFSYHCIEKPFKKWQGSFAQSVLWIYALPMLILGAGSFFAMRLPFMAQYDRLGLTRSNTSCHNNTGKQCLWGDTEKQPELLVLGDSHADHYKTFFDAVGKKEKWSATMVSADACAYVEGYASRVFQNWAACRAVYRYAEEHLPRYSKVVLAMRWGSQMPENSRSLAYDAGFFQKFDRMLHKLSSEKQAVYLMADNLASSYNVQRAYILSSRIPGYRQALRPDDESTLKANARIRELAAKYPNVYIIDAAAYIPADFQIGGLPVYSDKDHINPYGGTELAKRFSEKQRFLDTRHNH” is “failed”; for “MSQDGGQGRYAGRALAGGRYQLRDLLGEGGMASVHLAYDSVLDRQVAIKTLHTELGREQAFRERFRREAQAVAKLTHTNIVSVFDTGEDDLDGMTTPYIVMEYVEGRPLGSVLDEDVRQQGAMPADKALKITADVLAALEISHEMGLVHRDIKPGNVMMTKRGVVKVMDFGIARAMQSGVTSMTQTGMVVGTPQYLSPEQALGRGVDARSDLYSVGIMLFQLVTGRLPFDADSPLAIAYAHVQEQPVAPSAVNRALPPAVDALVARALKKNPNERFPSAEAMRDECLRVAASFQAAPPSIVPGAQTSSGAGVGSAVFPPVGQGTPAPTGPVQTPYQPTPSPGPNPYGTPAPAAHSPAYGYPQQAGYQTPAPAPYAQQQAAATPPPYNLTPSAQGSGSGSPGGKSNKPVIIGSIVVAVVAVGGLIGALLMNGGGDEDPEAGGGGSSTASVSASPSKAAGYRGPDKEKTIEKDKCTEPQESYNDPDKIQVPDFTFKYIGSVKECFNAAGWQMKVVEVDENTYGEGSVRDQFPTAGTDVDPENMPEIQLKVSTGNPPSE” it is “failed”; for “MSQDVSAQLQFRRSTMHWLRVARTAALALLLAPAVAPARAWLPPPGHVQMPLWPTVVPDALPHPRPESVGTGEGKRPWTKVGDVSRPTITFYAPKGQNTGAAAVVFPGGGYQVLAMDLEGTDICDWLSGRGITCVLLKYRVPNSGPTWTNGGRYYPKVQTALQDAQRALGLVRQHADDWGVDPHRVGVIGFSAGGHLVAAMSTHFTRRTYPSVDAADAQSCRPDFAIAVYPGHLWAHEDEDRAKRDPTHLPLRPDITVTADTPPTFLLQAEDDEVDGVSQSLAYYVALKQAGVPAEMHLYAEGGHAFGLRAGKLPIAQWPHLVETWLGTIGMLGTASAP” it is “failed”. The entry for “MSQFTPHFTYRNVALALLVSTVLNGCATKGFRDADDQAERDIRTAEQLHGLSLKQPSSPSLVWVDEPWVNPRPIRVSARAQQVKLPPCSLTLIIDGSLSLYEVGQRITRSCGFPVVITPDAMSALSGSASQGGVGATRAIQGALPRPDEGGRPALGSIGGVTSTQSFSPNIGAGLITDISWEGEPLGGALDQITSRLGLNWKFENNQVVLYYLDTRTYRLKVLNAETAMNSNLTGTSSSTAGGDSSSVSGSQNSGQSTSVKLESKIHNDIGQSIKSMVSSSGSWHLSGSTGELVVTDVPQVLDRVESYIDSLNVRMNRMVKLMVSVYSVQRKGSSQTSLDWSVVGKRLDRFGLTLAGTPTATTAVSSAGINVVDGKFAGTTALFRALETQGKVSVVMAHEATTTNLVPAPFQIAGQMVYLRSQKTSVSENYATTDMEPGSITTGTQMTLLPDIRDEGDIQLQFNFSHSDPAQLRKESSKDGNTKMEMPYTTVRSLSERVNLKPGQTLIVSGYNSRNLTASREGAFDPDVTVAGGGKSSETDDVTLIIAVTPVLM” is “failed”; for “MSQILTITFPIYAALAVGFLVVRQGWFSSADMRVLGRYVMDIALPALLFNAVASRDVAEVFHPGYMLAFAAAGLATVALSYLWFTLTGTEARRRAVAVMGSSCPNSGFVGYPVMLLTFPDLAGVILALNMLVENVLIIPACLILTDMARGRGQGGIGQRIAGILWGVLKRPMVIGLLLGLAVSLAGVPVPQTVTRLMQMLAASASALALVVIGGSLAGLSWKGSRWHAVQISALKLLLHPALALLAVILVAAIGLPLDPDMGTALILSAAMPMFGIYAVLAQELGHEGMASIALLTATTLAFFTLSGLLWWLT” it is “failed”.

For “MSQKQEEENPAEETGEEKQDTQEKEGILPERAEEAKLKAKYPSLGQKPGGSDFLMKRLQKGQKYFDSGDYNMAKAKMKNKQLPSAGPDKNLVTGDHIPTPQDLPQRKSSLVTSKLAGGQVE”, the protein production entry is “failed”. The result for “MSQQKHADQDYALETVPSESKKGFLPMFAIMLGFTFFSASMWAGGTIGTGLKFQTFLLAVLMGNLLLGLYTGALAYIGSSTGLSTHLLARYSFGEKGSYLASFILAITQVGWFGVGVAMFSLPVHYATGIDLNILLLLSGILMTTTAYFGIKSLTVLSMISVPAITLLGIYSVTGAVNSIGGISELFAIEPANNLGLAVGLSLCIGSFISGGTLTPDFSRFSKSKSIGVISTFIAFFIGNSLMFIFGAVGASTLGQSDISEVMLKQGLIIPAIIILGLNIWTTNDNALYASGLGFSNITKIPKKHVVIFNGLIGTLGALVLYNNFVGWLTLLSSIIPSIGGIIISDYFINKRQKYASLENIKVKKVHWNAVIAWVLGVFASQFLPGISPINAVFGSAIIYIVLETLKKNNI” reads “failed”.

For “MSQQNTELEGIGKLRSGSLFMILAVLLAAIGILVIISAGMLGGMFSAASGNVSGVIASGIGLLVGIAIVILIGAIIGLIGILRIRSGFGILKSLGRDVGIGEIGTTLYLVGLIIIIIGALLTIVLIGFPILILGEIIALIGGILIGIGFYKVGEIYNEGLVKIGGILIVIPIDLINFVGFILAYVGLGKVRPLPTVAQQPLVPQVYQVGQGTIRNNGYAYITLYSSTPASIISAKIEGANIMSSAINPTVLQIGNNEVTIFFGNVQSLAPNTTYIITLTINIGGNIINISTTAVYQP”, the protein production entry is recorded as “failed”. The entry for “MSQTEPPEDLMQYEAMAQDALRGVVKAALKKAAAPGGLPEPHHLYITFKTKAAGVSGPQDLLSKYPDEMTIVLQHQYWDLAPGETFFSVTLKFGGQPKRLSVPYAALTRFYDPSVQFALQFSAPEIIEDEPEPDPEPEDKANQGASGDEGPKIVSLDQFRKKLEHHHHHH” is “not failed”; for “MSQTKIEWADKVWNPVSGCTKISEGCQNCYAERMSKRLAGRCGYPAEEPFKVTPHPEKLGEPLKWRKPLRIFVNSMSDLFHADVPDKFIINVLSMIAEASHHTFLILTKRPERMRELLNHDTIANDVWLQTSRGVNAERSPWPLPNLWLGVSAENQAAADERIPILLQTPAAVRFVSVEPMLSEVNLSRYLKRPICKHWGRNGDPNIYGRYFWGKQALVGAGWVGIDWVICGGETGPGARPMHPVWVRDLRDQCRVAGTPFFFKSFGEYVRVGECMNEEDDEEFYSKSSAAGTNVQRLNLQGGMGYHGPKSIYMQRIGKKRAGRELDGRTWEEFPLEHHHHHH” it is “failed”; for “MSQTRDLQGGKAFGLLKAQQEERLDEINKQFLDDPKYSSDEDLPSKLEGFKEKYMEFDLNGNGDIDIMSLKRMLEKLGVPKTHLELKKLIGEVSSGSGETFSYPDFLRMMLGKRSAILKMILMYEEKAREKEKPTGPPAKKAISELP” it is “failed”. The result for “MSQVSIIIPTLNEAASLGRTLRQLTLLNPPAKEVIVVDGGSEDETIAIAKQNFESFRQATGVQVIFCERRGRSVQMNYGALSATGDILCFLHADTWVPDDLVAVIEKTLAETKVSCGGFISLMTGSQTTRWGISLHNYLKTYYAPLLFKPHLFFQGLRLLFGDQVMFCRRNDFWDCGGFNEELPIMEDGDLCLKLVQKGRIALVNRIVQSSDRRVARWGSWKATAIYLYIGVLWGIGVDANYLKQFYQDIRLEHHHHHH” reads “not failed”; that for “MSQVSTEFIPTRIAILTVSNRRGEEDDTSGHYLRDSAQEAGHHVVDKAIVKENRYAIRAQVSAWIASDDVQVVLITGGTGLTEGDQAPEALLPLFDREVEGFGEVFRMLSFEEIGTSTLQSRAVAGVANKTLIFAMPGSTKACRTAWENIIAPQLDARTRPCNFHPHLKK”, “not failed”.

For the origin of these results see a protein production outcome set (Wang et al. 2014).
